Where two headings read alike, the source gives them in different places.
Tests used:
[1] = target: soluble dimeric FcγRIIB (extracellular domain fused to hinge-CH2-CH3 of human IgG2) (human) (UniProt P31994); assay: SPR
[2] = target: soluble monomeric FcγRIIIA (extracellular region joined to linker-AVITAG), allele not stated (human) (UniProt P08637); assay: SPR
[3] = target: soluble monomeric FcγRIIIA (extracellular region joined to linker-AVITAG), allele not stated (human) (UniProt P08637); assay: SPR; remark: listed apart in the source
[4] = target: soluble dimeric FcγRIIB (extracellular domain fused to hinge-CH2-CH3 of human IgG2) (human) (UniProt P31994); assay: SPR; remark: listed apart in the source
[5] = target: soluble dimeric FcγRIIB (extracellular domain fused to hinge-CH2-CH3 of human IgG2) (human) (UniProt P31994); assay: ELISA
[6] = target: soluble monomeric FcγRIIIA (extracellular region joined to linker-AVITAG), allele not stated (human) (UniProt P08637); assay: ELISA
[7] = target: soluble FcγRIIIA 158V (human) (UniProt P08637); assay: SPR (BIAcore) steady-state analysis, ch4D5 antibody captured on immobilised ErbB2/Fc-aglycosyl chimera, soluble FcγRIIIA V158 (printed 3aV150) injected at 0.1-[…]
[8] = target: soluble FcγRIIIA 158F (human) (UniProt P08637); assay: SPR (BIAcore) steady-state analysis, ch4D5 antibody captured on immobilised ErbB2/Fc-aglycosyl chimera, soluble FcγRIIIA F158 (printed 3aF150) injected at 0.2-[…]
Sequence of soluble FcγRIIIA 158F (human) (P08637 17-208): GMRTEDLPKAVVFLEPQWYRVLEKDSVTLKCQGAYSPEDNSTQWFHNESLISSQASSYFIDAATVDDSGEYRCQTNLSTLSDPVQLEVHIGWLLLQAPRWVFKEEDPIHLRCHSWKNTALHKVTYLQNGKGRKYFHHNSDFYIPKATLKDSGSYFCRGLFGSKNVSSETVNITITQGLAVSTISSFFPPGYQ

Sequence of soluble monomeric FcγRIIIA (extracellular region joined to linker-AVITAG), allele not stated (human) (P08637 17-208): as above
Sequence of soluble dimeric FcγRIIB (extracellular domain fused to hinge-CH2-CH3 of human IgG2) (human) (P31994 43-217): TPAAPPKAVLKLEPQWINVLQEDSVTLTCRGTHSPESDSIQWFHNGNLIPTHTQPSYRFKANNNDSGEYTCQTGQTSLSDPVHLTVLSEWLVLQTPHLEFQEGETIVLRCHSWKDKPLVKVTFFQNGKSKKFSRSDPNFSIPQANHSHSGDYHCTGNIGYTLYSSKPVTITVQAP

| Kd [1] [nM] | Kd [2] [nM] | Kd [3] [nM] | Kd [4] [nM] | ELISA OD [5] [OD] | ELISA IIIA binding [6] [fold] | ELISA OD [6] [OD] | Kd [7] [nM] | Kd [8] [nM] | Substance |
| --- | --- | --- | --- | --- | --- | --- | --- | --- | --- |
| 94 | 198 | 319 | 61.4 | 0.4 | 1 | 0.5 | – | – | ch4-4-20 wild type (antibody) |
| – | – | – | – | – | – | – | 36000 | 1540 | ch4D5 wild type (IgG1) (antibody) |

From patent US20090098124A1 (MacroGenics, published 2009)
